T1: recombinant human IL-17E (R&D Systems Cat#1258-IL/CF) (human, UniProt Q9H293 33-177)
T1 construct: also called huIL-17E; hu IL-17E
T1 sequence (looked up): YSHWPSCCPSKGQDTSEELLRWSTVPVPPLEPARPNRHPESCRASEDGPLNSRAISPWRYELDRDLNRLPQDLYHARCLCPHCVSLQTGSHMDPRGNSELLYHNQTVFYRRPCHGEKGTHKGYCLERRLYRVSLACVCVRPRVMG

T2: recombinant human IL-17A (SEQ ID NO: 76) (human, UniProt Q16552 24-155, limits assumed)
T2 construct: homodimer; also called huIL-17A; rhuIL-17A
T2 sequence: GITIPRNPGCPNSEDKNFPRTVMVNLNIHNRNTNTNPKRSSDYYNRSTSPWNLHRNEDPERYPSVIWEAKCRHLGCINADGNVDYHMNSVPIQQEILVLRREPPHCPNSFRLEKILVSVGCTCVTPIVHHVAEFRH

T3: recombinant human IL-17A/F heterodimer (human, UniProt Q16552 24-155; Q96PD4 31-163, limits assumed)
T3 construct: heterodimer of an IL-17A subunit and an IL-17F subunit; also called huIL-17A/F; rhuIL-17A/F
T3 sequence (looked up) 1: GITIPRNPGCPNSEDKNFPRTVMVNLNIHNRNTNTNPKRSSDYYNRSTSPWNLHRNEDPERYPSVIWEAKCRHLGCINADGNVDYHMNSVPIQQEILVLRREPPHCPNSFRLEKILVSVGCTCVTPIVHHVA
T3 sequence (looked up) 2: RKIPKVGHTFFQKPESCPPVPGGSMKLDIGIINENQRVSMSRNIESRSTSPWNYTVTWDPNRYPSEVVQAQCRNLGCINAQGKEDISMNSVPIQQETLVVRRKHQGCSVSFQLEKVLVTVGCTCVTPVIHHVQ

T4: recombinant human IL-3 (R&D Systems Cat#203-IL/CF) (human, UniProt P08700 20-152)
T4 construct: also called huIL-3
T4 sequence (looked up): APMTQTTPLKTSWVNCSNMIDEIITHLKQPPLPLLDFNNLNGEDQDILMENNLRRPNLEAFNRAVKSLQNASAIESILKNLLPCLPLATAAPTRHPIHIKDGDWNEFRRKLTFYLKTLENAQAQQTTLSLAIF

T5: recombinant human IL-8 (R&D Systems Cat#208-IL-010/CF) (human, UniProt P10145 28-99)
T5 construct: also called huIL-8
T5 sequence (looked up): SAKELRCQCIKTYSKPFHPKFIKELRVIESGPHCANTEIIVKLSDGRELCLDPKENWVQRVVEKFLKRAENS

T6: recombinant human IL-18 (MBL Cat# B003-5) (human, UniProt Q14116 37-193)
T6 construct: also called huIL-18
T6 sequence (looked up): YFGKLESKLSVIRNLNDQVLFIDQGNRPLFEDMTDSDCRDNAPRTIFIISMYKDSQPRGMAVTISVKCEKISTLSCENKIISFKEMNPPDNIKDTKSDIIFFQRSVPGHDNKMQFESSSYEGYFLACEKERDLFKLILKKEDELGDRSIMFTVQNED

T7: recombinant human IL-20 (Novartis) (human, UniProt Q9NYY1 25-176, limits assumed)
T7 construct: also called huIL-20
T7 sequence (looked up): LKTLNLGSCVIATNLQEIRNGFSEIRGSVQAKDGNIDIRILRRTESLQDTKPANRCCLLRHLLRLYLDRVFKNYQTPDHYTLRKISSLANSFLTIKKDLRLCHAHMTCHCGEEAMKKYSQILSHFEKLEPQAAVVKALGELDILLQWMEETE

T8: recombinant human IL-23 (R&D Systems Cat#1290-IL-010/CF) (human, UniProt Q9NPF7 20-189; P29460 23-328)
T8 construct: also called huIL-23
T8 sequence (looked up) 1: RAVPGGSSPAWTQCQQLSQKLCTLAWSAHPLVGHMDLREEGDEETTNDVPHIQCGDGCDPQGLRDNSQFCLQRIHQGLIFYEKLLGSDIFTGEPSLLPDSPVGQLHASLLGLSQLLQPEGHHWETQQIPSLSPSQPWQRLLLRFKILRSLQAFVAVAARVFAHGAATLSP
T8 sequence (looked up) 2: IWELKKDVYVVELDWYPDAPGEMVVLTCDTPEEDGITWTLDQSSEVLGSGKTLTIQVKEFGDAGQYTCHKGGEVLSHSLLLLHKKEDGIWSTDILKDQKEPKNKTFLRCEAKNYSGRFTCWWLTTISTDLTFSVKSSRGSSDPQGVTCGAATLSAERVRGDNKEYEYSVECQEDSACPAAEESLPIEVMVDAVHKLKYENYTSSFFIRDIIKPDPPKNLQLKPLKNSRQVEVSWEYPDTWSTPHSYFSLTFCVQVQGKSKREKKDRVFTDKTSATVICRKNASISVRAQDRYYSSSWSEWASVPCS

T9: recombinant human TGFβ2 (Novartis) (human, UniProt P61812 303-414)
T9 construct: also called huTGFβ2
T9 sequence (looked up): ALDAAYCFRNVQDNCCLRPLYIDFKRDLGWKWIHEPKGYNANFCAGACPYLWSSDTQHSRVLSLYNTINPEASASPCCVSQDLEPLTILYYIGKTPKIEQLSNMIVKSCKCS


Columns and labels:
[1] = molecular target: T1, recombinant human IL-17E (R&D Systems …); experiment: ELISA, coated antigen
Description: A titration of the antibodies of interest on different antigens was carried out.
Plates were then washed 4 times with PBS/0.05% Tween 20 (Sigma Cat# P7949)/0.02% NaN₃.
Plates were then washed 4 times with PBS/0.05% Tween 20/0.02% NaN₃. Then, an alkaline phosphatase-conjugated goat anti-human IgG antibody (Sigma Cat# A9544) was added to the wells that received test antibody at a dilution of 1/20000 (100 μl/well) for 2 h 30 min at RT. To the wells, that received mouse mAb, an alkaline phosphatase-conjugated goat anti-mouse IgG antibody (Sigma Cat# A7434) was added at a dilution of 1/10000 (100 μl/well) for 2 h 30 min at RT. An alkaline phosphatase conjugated mouse anti goat IgG antibody (Sigma Cat# A8062) was added to the goat antibodies at a dilution of 1/50000 (100 μl/well) for 2 h 30 min at RT. Plates were then washed 4 times and 100 μl of the substrate (p-nitrophenyl phosphate tablets; Sigma; 5 mg Cat#N9389; 20 mg Cat#. N2765) dissolved in diethanolamine buffer pH 9.8, to give a final concentration of 1 mg/ml, were added to each well.

[2] = molecular target: T2, recombinant human IL-17A (SEQ ID NO: 76); experiment: ELISA, coated cytokine, Ab 10 µg/ml;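 further: antibodies incubated 3 h at room temperature on the coated wells, binding detected with alkaline phosphatase-conjugated anti-IgG secondary antibodies matching the species of each test antibody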
Description: (§1) The antibodies of the disclosure were added at 10 μg/ml (100 μl/well) for 3 h at room temperature. […] They were added at 1 or 5 μg/ml, in PBS, 0.02% NaN₃ for 3 h at RT.
(§2) Plates were then washed 4 times with PBS/0.05% Tween 20/0.02% NaN₃. Then, an alkaline phosphatase-conjugated goat anti-human IgG antibody (Sigma Cat# A9544) was added to the wells with human antibodies at a dilution of 1/20000 (100 μl/well). An alkaline phosphatase-conjugated goat anti-mouse IgG antibody (Sigma Cat# A1047) was added to the wells with mouse antibodies at a dilution of 1/10000 (100 μl/well). An alkaline phosphatase-conjugated rabbit anti-goat IgG antibody (Sigma Cat# A7650) was added to the wells with goat antibodies at a dilution of 1/1000 (100 μl/well) and an alkaline phosphatase-conjugated rabbit anti rat-IgG antibody (Sigma Cat# A6066) was added to the wells with rat antibodies at a dilution of 1/20000 (100 μl/well).

[3] = molecular target: T3, recombinant human IL-17A/F heterodimer; experiment: ELISA, coated cytokine, Ab 10 µg/ml;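 further: antibodies incubated 3 h at room temperature on the coated wells, binding detected with alkaline phosphatase-conjugated anti-IgG secondary antibodies matching the species of each test antibody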
Description: as §1, §2

[4] = molecular target: T10, recombinant human IL-1β (Novartis) (human, UniProt P01584 117-269); experiment: ELISA, coated cytokine, Ab 10 µg/ml;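 further: antibodies incubated 3 h at room temperature on the coated wells, binding detected with alkaline phosphatase-conjugated anti-IgG secondary antibodies matching the species of each test antibody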
T10 construct: also called huIL1β
Description: as §1, §2

[5] = molecular target: T4, recombinant human IL-3 (R&D Systems …); experiment: ELISA, coated cytokine, Ab 10 µg/ml;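 further: antibodies incubated 3 h at room temperature on the coated wells, binding detected with alkaline phosphatase-conjugated anti-IgG secondary antibodies matching the species of each test antibody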
Description: as §1, §2

[6] = molecular target: T5, recombinant human IL-8 (R&D Systems …); experiment: ELISA, coated cytokine, Ab 10 µg/ml
Description: as §1, §2

[7] = molecular target: T11, recombinant human IL-13 (Novartis) (human, UniProt P35225 35-146, limits assumed); experiment: ELISA, coated cytokine, Ab 10 µg/ml
T11 construct: also called huIL-13
T11 sequence (P35225 35-146 limits assumed): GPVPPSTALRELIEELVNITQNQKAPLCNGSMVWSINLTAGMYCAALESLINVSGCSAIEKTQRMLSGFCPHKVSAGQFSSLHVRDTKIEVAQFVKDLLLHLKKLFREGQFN
Description: as §1, §2

[8] = molecular target: T6, recombinant human IL-18 (MBL Cat# …); experiment: ELISA, coated cytokine, Ab 10 µg/ml
Description: as §1, §2

[9] = molecular target: T7, recombinant human IL-20 (Novartis); experiment: ELISA, coated cytokine, Ab 10 µg/ml
Description: as §1, §2

[10] = molecular target: T8, recombinant human IL-23 (R&D Systems …); experiment: ELISA, coated cytokine, Ab 10 µg/ml
Description: as §1, §2

[11] = molecular target: T12, recombinant human TNFα (Novartis) (human, UniProt P01375 77-233); experiment: ELISA, coated cytokine, Ab 10 µg/ml
T12 construct: also called huTNFα
T12 sequence (P01375 77-233 limits assumed): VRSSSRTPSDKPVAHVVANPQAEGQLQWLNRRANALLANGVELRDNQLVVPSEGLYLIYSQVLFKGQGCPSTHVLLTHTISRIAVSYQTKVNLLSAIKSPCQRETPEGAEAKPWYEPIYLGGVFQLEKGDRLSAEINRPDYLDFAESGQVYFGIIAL
Description: as §1, §2

[12] = molecular target: T13, recombinant human EGF (Sigma Cat#E9644) (human, UniProt P01133 971-1023); experiment: ELISA, coated cytokine, Ab 10 µg/ml
T13 construct: also called huEGF
T13 sequence (P01133 971-1023 limits assumed): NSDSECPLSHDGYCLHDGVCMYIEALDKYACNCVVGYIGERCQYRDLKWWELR
Description: as §1, §2

[13] = molecular target: T9, recombinant human TGFβ2 (Novartis); experiment: ELISA, coated cytokine, Ab 10 µg/ml
Description: as §1, §2

| Binder | binding result [1] | O.D. [2] [O.D.] | O.D. [3] [O.D.] | O.D. [4] [O.D.] | O.D. [5] [O.D.] | O.D. [6] [O.D.] | O.D. [7] [O.D.] | O.D. [8] [O.D.] | O.D. [9] [O.D.] | O.D. [10] [O.D.] | O.D. [11] [O.D.] | O.D. [12] [O.D.] | O.D. [13] [O.D.] |
| --- | --- | --- | --- | --- | --- | --- | --- | --- | --- | --- | --- | --- | --- |
| XAB4 (antibody, human IgG1, kappa, V domains shown, also called MB435 N56Q) VH: EVQLVESGGDLVQPGGSLRLSCAASGFTFSSYWMSWVRQAPGKGLEWVANIKQDGSEKYYVDSVKGRFTISRDNAKNSLYLQMNSLRAEDTAVYYCARDRGSLYYWGQGTLVTVSS VL: AIQLTQSPSSLSASVGDRVTITCRPSQGINWELAWYQQKPGKAPKLLIYDASSLEQGVPSRFSGSGSGTDFTLTISSLQPEDFATYYCQQFNSYPLTFGGGTKVEIKR | no binding (tested: 1 µg/ml) | 3.18 | 3.1 | 0.015 | 0.167 | 0.018 | 0.019 | -0.001 | 0.039 | -0.022 | 0.009 | 0.126 | 0.018 |
| XAB1 (antibody, human IgG1, kappa, V domains shown, human IgG1/kappa monoclonal antibody; also called parental XAB1; XAB1 IgG) VH: EVQLVESGGDLVQPGGSLRLSCAASGFTFSSYWMSWVRQAPGKGLEWVANIKQDGSEKYYVDSVKGRFTISRDNAKNSLYLQMNSLRAEDTAVYYCARDRGSLYYWGQGTLVTVSS VL: AIQLTQSPSSLSASVGDRVTITCRPSQGIISALAWYQQKPGKAPKLLIYDASSLENGVPSRFSGSGSGTDFTLTISSLQPEDFATYYCQQFNSYPLTFGGGTKVEIKR | no binding (tested: 1 µg/ml) | 2.75 | 2.64 | -0.11 | -0.049 | 0.058 | 0.125 | -0.086 | 0.335 | 0.085 | 0.289 | 0.062 | 0.146 |

Reference: patent publication US20180194839A1 (Novartis, published 2018)
